Experimental findings from paper PMC7041688 (The Journal of Cell Biology, 2020) are described below.

One assay has as its target T1, CHC(1–642)-6xHis (UniProt Q00610 1-642).
T1 sequence (looked up): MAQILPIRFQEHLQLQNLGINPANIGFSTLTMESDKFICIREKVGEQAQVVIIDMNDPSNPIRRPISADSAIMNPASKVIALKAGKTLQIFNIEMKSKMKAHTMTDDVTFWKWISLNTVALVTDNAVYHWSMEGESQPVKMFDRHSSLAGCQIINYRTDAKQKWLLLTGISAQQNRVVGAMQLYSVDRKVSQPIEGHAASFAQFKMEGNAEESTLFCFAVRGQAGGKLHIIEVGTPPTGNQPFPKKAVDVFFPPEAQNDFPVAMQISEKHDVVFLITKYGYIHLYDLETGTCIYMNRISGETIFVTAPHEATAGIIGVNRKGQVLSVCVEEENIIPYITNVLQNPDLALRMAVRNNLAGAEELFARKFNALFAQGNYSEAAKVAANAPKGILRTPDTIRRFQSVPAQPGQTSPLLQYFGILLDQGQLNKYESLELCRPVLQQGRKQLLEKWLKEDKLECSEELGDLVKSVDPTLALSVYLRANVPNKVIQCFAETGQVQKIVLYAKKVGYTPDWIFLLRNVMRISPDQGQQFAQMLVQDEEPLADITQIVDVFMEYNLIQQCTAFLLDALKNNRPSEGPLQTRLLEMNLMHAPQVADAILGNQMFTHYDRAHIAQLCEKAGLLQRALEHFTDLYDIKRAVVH
Description: pull-down.

In a further assay the target is T2, CHC(1–364) (UniProt Q00610 1-364).
T2 sequence (looked up): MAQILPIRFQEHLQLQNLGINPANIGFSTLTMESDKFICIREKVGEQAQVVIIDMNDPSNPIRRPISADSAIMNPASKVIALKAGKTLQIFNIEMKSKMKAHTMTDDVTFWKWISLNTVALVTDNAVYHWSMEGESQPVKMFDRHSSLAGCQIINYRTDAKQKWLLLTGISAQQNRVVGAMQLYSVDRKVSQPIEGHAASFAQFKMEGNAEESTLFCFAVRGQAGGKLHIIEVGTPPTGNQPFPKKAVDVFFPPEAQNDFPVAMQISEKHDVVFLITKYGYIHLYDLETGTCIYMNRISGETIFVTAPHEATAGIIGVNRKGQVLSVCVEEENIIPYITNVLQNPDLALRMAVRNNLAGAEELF
Description: crystal structure.

Assay [1] concerns the target T3, GTSE1 (purified recombinant) (human, UniProt Q9NYZ3 1-739).
T3 sequence (looked up): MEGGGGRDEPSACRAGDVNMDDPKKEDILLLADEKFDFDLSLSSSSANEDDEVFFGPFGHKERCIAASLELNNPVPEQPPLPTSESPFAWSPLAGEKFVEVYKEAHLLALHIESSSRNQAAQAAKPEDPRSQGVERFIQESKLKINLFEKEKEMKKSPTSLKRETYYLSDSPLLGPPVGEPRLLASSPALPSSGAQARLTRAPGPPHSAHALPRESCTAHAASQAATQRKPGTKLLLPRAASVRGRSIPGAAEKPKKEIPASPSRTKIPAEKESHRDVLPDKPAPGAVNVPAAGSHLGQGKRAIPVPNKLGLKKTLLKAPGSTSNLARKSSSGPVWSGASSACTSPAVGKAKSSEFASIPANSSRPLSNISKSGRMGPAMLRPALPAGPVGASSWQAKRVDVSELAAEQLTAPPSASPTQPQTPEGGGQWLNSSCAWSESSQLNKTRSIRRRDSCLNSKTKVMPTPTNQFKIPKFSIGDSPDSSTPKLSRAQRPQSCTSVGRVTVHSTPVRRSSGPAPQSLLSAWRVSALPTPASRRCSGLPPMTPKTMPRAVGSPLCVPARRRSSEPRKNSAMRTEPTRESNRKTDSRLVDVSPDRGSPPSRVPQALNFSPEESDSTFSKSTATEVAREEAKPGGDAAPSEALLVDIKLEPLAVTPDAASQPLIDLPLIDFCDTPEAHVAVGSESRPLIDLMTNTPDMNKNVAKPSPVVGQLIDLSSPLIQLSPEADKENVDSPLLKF
Description: pull-down.

In the next assay the target is T4, GTSE1-GFP (purified) (human, UniProt Q9NYZ3 1-739).
T4 sequence (looked up): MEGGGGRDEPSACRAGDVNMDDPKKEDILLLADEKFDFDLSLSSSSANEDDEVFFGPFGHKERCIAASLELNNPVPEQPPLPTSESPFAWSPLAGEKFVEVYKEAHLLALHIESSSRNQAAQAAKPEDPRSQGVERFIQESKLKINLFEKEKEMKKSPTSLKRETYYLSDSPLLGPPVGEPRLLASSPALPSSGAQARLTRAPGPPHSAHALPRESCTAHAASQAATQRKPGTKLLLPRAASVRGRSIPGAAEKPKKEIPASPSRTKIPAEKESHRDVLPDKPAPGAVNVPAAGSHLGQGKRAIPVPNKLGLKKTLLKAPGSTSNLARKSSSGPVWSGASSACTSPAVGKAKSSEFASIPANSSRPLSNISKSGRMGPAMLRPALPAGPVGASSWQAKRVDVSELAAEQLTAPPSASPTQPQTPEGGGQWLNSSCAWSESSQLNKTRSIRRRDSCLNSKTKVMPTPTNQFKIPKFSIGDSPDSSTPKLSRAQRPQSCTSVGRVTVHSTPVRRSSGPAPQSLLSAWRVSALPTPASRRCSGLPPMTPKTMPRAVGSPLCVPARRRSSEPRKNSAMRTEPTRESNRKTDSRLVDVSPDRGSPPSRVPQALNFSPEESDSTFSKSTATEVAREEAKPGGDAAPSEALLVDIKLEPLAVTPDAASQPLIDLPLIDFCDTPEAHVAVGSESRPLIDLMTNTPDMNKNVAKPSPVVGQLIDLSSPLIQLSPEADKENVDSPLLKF
Put plainly: pull-down.

B1: GST-GTSE1-C3 (domain or fragment, human, UniProt Q9NYZ3 693-739, looked up)
chain: MTNTPDMNKNVAKPSPVVGQLIDLSSPLIQLSPEADKENVDSPLLKF
For B1, the binding result with CHC(1–642)-6xHis was “binds”.

B2: GST-GTSE1-C3 motif E mutant (domain or fragment, human, UniProt Q9NYZ3 693-739, looked up)
chain: MTNTPDMNKNVAKPSPVVGQLIDLSSPAAALSPEADKENVDSPLLKF
B2: in the assay with CHC(1–642)-6xHis, the binding result is on record as “binds”.

B3: GST-GTSE1-C1 (domain or fragment, human, UniProt Q9NYZ3 652-687, looked up)
chain: PLAVTPDAASQPLIDLPLIDFCDTPEAHVAVGSESR
For the molecule B3, the binding result with CHC(1–642)-6xHis is “binds”.

B4: GTSE1-C5 (domain or fragment, human)
chain: GPLGSLAVTPDAASQPLIDLPLIDFCDTPEAHVAVGSESRPLIDLMTNTPDMNKNVAKPSPVVGQLIDLSSP
With B4, in the assay with CHC(1–364), the binding result is reported as “binds”.

B5: GTSE1-C4 (domain or fragment, human)
chain: GPLGSQPLIDLPLIDFCDTPEAHVAVGSESRPLIDLMTNTPDMNKNVAKPSPVVGQLIDLSSPLIQLSPE
With B5, the binding result with CHC(1–364) was “binds”.

B6: GST-CHC(1–330) (domain or fragment, UniProt Q00610 1-330, looked up)
chain: MAQILPIRFQEHLQLQNLGINPANIGFSTLTMESDKFICIREKVGEQAQVVIIDMNDPSNPIRRPISADSAIMNPASKVIALKAGKTLQIFNIEMKSKMKAHTMTDDVTFWKWISLNTVALVTDNAVYHWSMEGESQPVKMFDRHSSLAGCQIINYRTDAKQKWLLLTGISAQQNRVVGAMQLYSVDRKVSQPIEGHAASFAQFKMEGNAEESTLFCFAVRGQAGGKLHIIEVGTPPTGNQPFPKKAVDVFFPPEAQNDFPVAMQISEKHDVVFLITKYGYIHLYDLETGTCIYMNRISGETIFVTAPHEATAGIIGVNRKGQVLSVCVE
Regarding B6, the binding result (in assay [1]; in the assay with GTSE1-GFP (purified)) was “binds” in each case.

B7: GST-CHC(1–330) S2M (domain or fragment, UniProt Q00610 1-330, looked up)
chain: MAQILPIRFQEHLQLQNLGINPANIGFSTLTMESDKFICIREKVGEQAQVVIIDMNDPSNPIRRPISADSAIMNPASKVIALKAGKTLQIFNIEMKSKMKAHTMTDDVTFWKWISLNTVALVTDNAVYHWSMEGESQPVKMFDRHSSLAGCLIQNYRTDAKQKWLLLTGISAQQNRVVGAMQLYSVDRKVSQPIEGHAASFAQFKMEGNAEESTLFCFAVRGQAGGKLHIIEVGTPPTGNQPFPKKAVDVFFPPEAQNDFPVAMQISEKHDVVFLITKYGYIHLYDLETGTCIYMNRISGETIFVTAPHEATAGIIGVNRKGQVLSVCVE
On to B7, for which the binding result in assay [1] was “binds”.
